In patent US20180339041A1 (Kyowa Kirin, published 2018):

T1: C-terminally FLAG-tagged rat Gas6 recombinant protein (rGas6-F) (rat, UniProt Q63772 28-674, limits assumed, gamma-carboxylated glutamic acid residues in the Gla domain (producer cells co-express rat VKOR and human GGCX); positions not given)
T1 construct: also called rat Gas6-F
T1 sequence (looked up): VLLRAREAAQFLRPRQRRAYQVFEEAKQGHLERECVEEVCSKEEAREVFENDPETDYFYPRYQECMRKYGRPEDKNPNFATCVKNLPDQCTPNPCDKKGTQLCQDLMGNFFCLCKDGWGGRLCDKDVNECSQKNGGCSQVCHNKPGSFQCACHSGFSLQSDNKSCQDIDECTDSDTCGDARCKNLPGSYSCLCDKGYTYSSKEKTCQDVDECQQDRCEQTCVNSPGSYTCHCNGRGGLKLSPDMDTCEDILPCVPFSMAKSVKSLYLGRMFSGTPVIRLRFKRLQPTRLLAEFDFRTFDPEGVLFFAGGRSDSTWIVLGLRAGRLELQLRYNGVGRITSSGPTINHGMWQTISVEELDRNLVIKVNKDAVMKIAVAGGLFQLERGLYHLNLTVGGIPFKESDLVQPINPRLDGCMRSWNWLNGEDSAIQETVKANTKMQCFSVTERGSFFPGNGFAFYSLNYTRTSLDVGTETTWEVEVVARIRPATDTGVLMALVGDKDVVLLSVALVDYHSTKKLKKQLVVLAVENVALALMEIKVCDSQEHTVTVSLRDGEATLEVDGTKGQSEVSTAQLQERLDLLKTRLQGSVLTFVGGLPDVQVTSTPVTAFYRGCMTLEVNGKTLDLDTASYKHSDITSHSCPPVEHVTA

T2: C-terminally FLAG-tagged mouse Gas6 recombinant protein (mGas6-F) (mouse, UniProt Q61592 28-674, limits assumed, gamma-carboxylated glutamic acid residues in the Gla domain (producer cells co-express rat VKOR and human GGCX); positions not given)
T2 construct: also called mouse Gas6-F
T2 sequence (looked up): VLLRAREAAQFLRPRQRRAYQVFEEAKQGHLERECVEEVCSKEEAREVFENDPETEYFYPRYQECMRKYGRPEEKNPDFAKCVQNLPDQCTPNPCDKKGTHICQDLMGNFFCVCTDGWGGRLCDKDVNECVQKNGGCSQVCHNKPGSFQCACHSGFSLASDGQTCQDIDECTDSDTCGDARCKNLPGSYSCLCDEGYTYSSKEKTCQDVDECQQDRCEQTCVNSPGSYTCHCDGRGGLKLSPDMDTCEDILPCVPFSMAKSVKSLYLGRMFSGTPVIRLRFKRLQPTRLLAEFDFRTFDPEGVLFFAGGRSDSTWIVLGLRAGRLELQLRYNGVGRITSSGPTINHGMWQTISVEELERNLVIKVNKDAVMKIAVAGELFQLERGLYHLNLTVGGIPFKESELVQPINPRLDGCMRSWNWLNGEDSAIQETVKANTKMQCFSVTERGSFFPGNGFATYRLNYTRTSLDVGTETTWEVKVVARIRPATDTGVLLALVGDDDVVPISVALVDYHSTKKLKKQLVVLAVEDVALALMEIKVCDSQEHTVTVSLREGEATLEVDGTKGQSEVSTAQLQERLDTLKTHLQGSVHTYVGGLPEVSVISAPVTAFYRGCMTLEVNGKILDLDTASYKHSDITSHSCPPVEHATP

T3: C-terminally FLAG-tagged human Gas6 recombinant protein (hGas6-F) (human, UniProt Q14393 31-678, gamma-carboxylated glutamic acid residues in the Gla domain (producer cells co-express rat VKOR and human GGCX); positions not given)
T3 construct: also called human Gas6-F; human Gas6 protein
T3 sequence: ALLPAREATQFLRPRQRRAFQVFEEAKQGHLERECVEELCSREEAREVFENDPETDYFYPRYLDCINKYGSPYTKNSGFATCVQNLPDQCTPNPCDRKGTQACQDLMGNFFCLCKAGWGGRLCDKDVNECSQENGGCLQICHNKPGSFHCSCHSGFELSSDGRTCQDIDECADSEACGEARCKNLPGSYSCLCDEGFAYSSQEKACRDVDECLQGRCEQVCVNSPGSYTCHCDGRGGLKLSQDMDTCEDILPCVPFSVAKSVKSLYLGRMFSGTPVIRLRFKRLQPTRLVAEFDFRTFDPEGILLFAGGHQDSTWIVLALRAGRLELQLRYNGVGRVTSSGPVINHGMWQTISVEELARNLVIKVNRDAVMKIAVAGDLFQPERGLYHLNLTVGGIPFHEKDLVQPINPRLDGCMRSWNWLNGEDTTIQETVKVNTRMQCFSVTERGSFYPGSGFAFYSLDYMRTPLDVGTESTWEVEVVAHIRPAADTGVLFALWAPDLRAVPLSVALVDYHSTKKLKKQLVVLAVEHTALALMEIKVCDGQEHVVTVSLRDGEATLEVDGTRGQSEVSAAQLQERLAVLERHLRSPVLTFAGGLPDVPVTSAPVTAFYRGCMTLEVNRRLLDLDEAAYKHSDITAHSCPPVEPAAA

B1: anti-human Gas6 mouse monoclonal antibody KM5320 (KM5320-mKG1 antibody) (antibody, V domains shown)
VH: QIQLVQSGPELKKPGETVKISCKASGYTFTNYGMNWVKQAPGKGLKWMGWINTETGEPTYSDDFKGRFAFSLETSATTAYLQINNLRNEDMATYFCAREDGYYGTLDYWGQGTSVTVSS
VL: SIVMTQTPKFLLVSAGDRVTITCKASQSVSNDVAWYQQKPGQSPKVLIYYASNRYTGVPDRFTGSGYGTDFTFTISTVQAEDLAVYFCQQDYSSPWTFGGGTKLEIK
notes: Hybridoma-derived mouse IgG1, kappa; also called KM5320 antibody
B2: anti-human Gas6 mouse monoclonal antibody KM5321 (KM5321-mKG1 antibody) (antibody, V domains shown)
VH: QIQLVQSGPELKKPGETVKISCRASGYTFTNYGMNWVKQAPGKGLKWMGWINTNTGEPTYTEEFKGRFAFSLETSATTAYLQINDLKNEDTATYFCARDEGWFVYWGQGTLITVSA
VL: ETTVTQSPASLSVATGEKVTIRCITSTDIDDDMNWYQQKPGEPPKLLISEGNTLRPGVPSRFSSSGYGTDFVFTIENTLSEDVADYYCLQTDSVPLTFGAGTKLELK
notes: Hybridoma-derived mouse IgG1, kappa; also called KM5321 antibody

Legend:
[1] = target: T1, C-terminally FLAG-tagged rat Gas6 …; experiment: ELISA: rGas6-F (1 µg/mL) captured on coated anti-FLAG M2 antibody; biotinylated test antibody; streptavidin-HRP/TMB; absorbance 450-570 nm, N=2 (Example 6) [C]
Description: First, 2 μg/mL anti-FLAG antibody [Monoclonal ANTI-FLAG M2 antibody produced in mouse (manufactured by Sigma-Aldrich Co. LLC) diluted with PBS (manufactured by Nacalai Tesque, Inc.)] was dispensed at 50 μL/well to a 96-well plate for ELISA (manufactured by Nalge Nunc International), and the plate was left standing overnight at 4° C. for adsorption. After removal of the immobilization solution, 1% BSA-PBS (manufactured by Nacalai Tesque, Inc.) was added thereto at 300 μL/well, and the plate was left standing at room temperature for 1 hour for blocking and washed five times with Tween 20-PBS (manufactured by Wako Pure Chemical Industries Ltd.).
Each antibody solution was dispensed thereto at 50 μL/well, and the plate was left standing at room temperature for 1 hour. This plate was washed five times with Tween 20-PBS. Then, Streptavidin HRP Conjugate (manufactured by R&D Systems, Inc.) diluted 200-fold with 1% BSA-PBS was dispensed thereto at 50 μL/well, and the plate was left standing at room temperature for 1 hour. This plate was washed five times with Tween 20-PBS, and TMB (manufactured by Sigma-Aldrich Co. LLC) was added thereto at 50 μL/well and reacted. […] The absorbance at a sample wavelength of 450 nm and a reference wavelength of 570 nm (450 nm-570 nm) was measured using a plate reader.

[2] = target: T2, C-terminally FLAG-tagged mouse Gas6 …; experiment: competition ELISA: mAxl-mFc coated; mGas6-F at 50 ng/mL final premixed with the antibody; bound Gas6-F detected with anti-FLAG M2-HRP; blocked partner mAxl-mFc (Examples 5(4) and 7) [C]
[3] = target: T3, C-terminally FLAG-tagged human Gas6 …; experiment: competitive ELISA, hAxl-hFc immobilised, 50 ng/mL hGas6-F

| EC50 (read off the curve) [1] [µg/mL] | IC50 (read off the curve) [2] [µg/mL] | antibody:Gas6 molar concentration ratio at complete inhibition [3] | Binder |
| --- | --- | --- | --- |
| ~0.005 | ~0.09 | 2 antibody:Gas6 molar ratio | B1 |
| ~0.004 | ~0.03 | 0.5 antibody:Gas6 molar ratio | B2 |
